Consider 1 protein from patent US20020110883.

This data set deals with microtubules.

B1: Kip3A 353 protein (protein)
chain: MAVEDSTLQVVVRVRPPTPRELDSQRRPVVQVVDERVLVFNPEEPDGGFPGLKWGGTHDGPKKKGKDLTFVFDRVFGEAATQQDVFQHTTHSVLDSFLQGYNCSVFAYGATGAGKTHTMLGREGDPGIMYLTTVELYRRLEARQQEKHFEVLISYQEVYNEQIHDLLEPKGPLAIREDPDKGVVVQGLSFHQPASAEQLLEILTRGNRNRTQHPTDANATSSRSHAIFQIFVKQQDRVPGLTQAVQVAKMSLIDLAGSERASSTHAKGERLREGANINRSLLALINVLNALADAKGRKTHVPYRDSKLTRLLKDSLGGNCRTVMIAAISPSSLTYEDTYNTLKYADRAKEIRLKGNSKLEGKPIPNPLLGLDSTRTGHHHHHH
As to B1, the “Km for microtubule stimulation (coupled PK/LDH ATPase assay, Michaelis-Menten fit)” value is “Km for microtubule stimulation of 4.6 ug/ml”; the “Vmax of microtubule-stimulated ATPase (coupled PK/LDH ATPase assay, Michaelis-Menten fit)” value is “Vmax 0.85 uM ADP/s”; the “kcat of microtubule-stimulated ATPase (from Vmax)” value is reported as “corresponds to a kcat value of 15s^-”.
